Reference: patent US20130122000A1 (TRELLIS BIOSCIENCE, published 2013)

B1: heregulin (ligand, UniProt Q02297-6 177-241, looked up)
chain: SHLVKCAEKEKTFCVNGGECFMVKDLSNPSRYLCKCPNEFTGDRCQNYVMASFYKHLGIEFMEAE
notes: also called HRG
B2: 1G4 mAb (antibody, V domains shown)
VH: GASVKMSCKASGYTFTDYVISWVKQRTGQGLEWIGEIYPGSGRYYHNEKFKGKATLTADKSSNTAYIQLSSLTSEDSAVYFCTRSLQRLRYFDVWGAGTTVTVSS
VL: QSPATLSVTPGDRVSLSCRASQSISDYLHWYQQKSHESPRLLIKYGSQSISGIPSRFSGSGSGTDFTLSISSVETEDFGMYFCQQSNSWPLTFGAGTKLELKR
notes: Murine monoclonal antibody from a hybridoma; also called IG4; antibody 1G4

Experiments:
[1] = biological target: T1, HER3 extracellular domain (ECD) (UniProt P21860 20-643); assay: FortéBio biosensor (BLI), HER3 ECD on amine-reactive surface; average (Stdev 111,000)
T1 construct: extracellular domain; Coupled to an amine-reactive biosensor surface at 10-15 ug/ml; also called HER3 ECD; ErbB3

[2] = biological target: HER3 on tumor cells (MCF-7, MB468) (UniProt P21860 20-1342, limits assumed); assay: cell-based or functional assay
HER3:heregulin complex = biological target: T2, HER3:heregulin complex (UniProt P21860 20-643; Q02297 177-241, limits assumed); assay: FortéBio biosensor (BLI), HER3 ECD on amine surface loaded with heregulin at 10 ug/ml, antibody from 67 nM, 3-fold series; average (Stdev 113)
T2 construct: Non-covalent receptor-ligand complex, formed on the biosensor by adding heregulin to immobilised HER3 ECD; also called heregulin active complex with HER3; complex of HER3 ECD with heregulin
Protocol: The binding assay was repeated for two of the antibodies, 1G4 and 14B10 using the same FortéBio® method. HER3 ECD at 10-15 μg/ml was again captured onto the amine surface in the same buffer. Heregulin at 10 μg/ml was added to form the HER3:heregulin complex on the surface and the antibodies tested at 67 nM once again using three-fold dilution series and the data were fitted to determine binding constants.

[3] = biological target: T1, HER3 extracellular domain (ECD); assay: FortéBio biosensor (BLI), HER3 ECD on amine-reactive surface, antibody in solution from 67 nM, 3-fold series; average (Stdev 2,660)
Protocol: Of these, six of these murine antibodies were assayed quantitatively for their binding affinities to HER3 ECD according to the commercially available FortéBio® method. In this method, ECD at 10-15 μg/ml was captured onto an amine-reactive surface in 10 mM MES, pH 6.0 at 25° C. Binding capacity is tested by treating the surface with unlabeled antibody. As unlabeled antibody accumulates on the surface, the optical characteristics of the surface are changed, thus allowing measurement of mass accumulation without requiring labeling. This is a modification of the Biacore™ style analysis. The antibodies were tested at 67 nM as the highest concentration and diluted in a three-fold dilution series. Response data for the various concentrations were individually and globally fitted to determine the binding affinities.

T1 sequence (P21860 20-643 limits assumed): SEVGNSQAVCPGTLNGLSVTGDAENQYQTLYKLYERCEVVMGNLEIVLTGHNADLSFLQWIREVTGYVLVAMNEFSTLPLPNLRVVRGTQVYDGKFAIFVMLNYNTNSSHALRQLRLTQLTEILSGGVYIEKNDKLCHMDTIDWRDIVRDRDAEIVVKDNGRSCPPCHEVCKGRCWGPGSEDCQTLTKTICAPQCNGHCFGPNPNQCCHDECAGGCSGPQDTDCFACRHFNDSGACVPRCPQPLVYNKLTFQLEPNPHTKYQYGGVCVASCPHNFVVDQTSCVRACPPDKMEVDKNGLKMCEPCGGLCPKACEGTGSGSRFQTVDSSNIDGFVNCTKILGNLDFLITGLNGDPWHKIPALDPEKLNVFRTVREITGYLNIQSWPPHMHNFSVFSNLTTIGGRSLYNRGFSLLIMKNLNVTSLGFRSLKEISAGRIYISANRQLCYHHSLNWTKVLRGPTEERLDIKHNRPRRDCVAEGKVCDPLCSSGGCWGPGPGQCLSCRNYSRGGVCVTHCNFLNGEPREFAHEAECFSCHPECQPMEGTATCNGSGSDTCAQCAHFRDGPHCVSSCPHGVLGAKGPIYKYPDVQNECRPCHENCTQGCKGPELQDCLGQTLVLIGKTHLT
Chain of HER3 on tumor cells (MCF-7, MB468) (P21860 20-1342 limits assumed): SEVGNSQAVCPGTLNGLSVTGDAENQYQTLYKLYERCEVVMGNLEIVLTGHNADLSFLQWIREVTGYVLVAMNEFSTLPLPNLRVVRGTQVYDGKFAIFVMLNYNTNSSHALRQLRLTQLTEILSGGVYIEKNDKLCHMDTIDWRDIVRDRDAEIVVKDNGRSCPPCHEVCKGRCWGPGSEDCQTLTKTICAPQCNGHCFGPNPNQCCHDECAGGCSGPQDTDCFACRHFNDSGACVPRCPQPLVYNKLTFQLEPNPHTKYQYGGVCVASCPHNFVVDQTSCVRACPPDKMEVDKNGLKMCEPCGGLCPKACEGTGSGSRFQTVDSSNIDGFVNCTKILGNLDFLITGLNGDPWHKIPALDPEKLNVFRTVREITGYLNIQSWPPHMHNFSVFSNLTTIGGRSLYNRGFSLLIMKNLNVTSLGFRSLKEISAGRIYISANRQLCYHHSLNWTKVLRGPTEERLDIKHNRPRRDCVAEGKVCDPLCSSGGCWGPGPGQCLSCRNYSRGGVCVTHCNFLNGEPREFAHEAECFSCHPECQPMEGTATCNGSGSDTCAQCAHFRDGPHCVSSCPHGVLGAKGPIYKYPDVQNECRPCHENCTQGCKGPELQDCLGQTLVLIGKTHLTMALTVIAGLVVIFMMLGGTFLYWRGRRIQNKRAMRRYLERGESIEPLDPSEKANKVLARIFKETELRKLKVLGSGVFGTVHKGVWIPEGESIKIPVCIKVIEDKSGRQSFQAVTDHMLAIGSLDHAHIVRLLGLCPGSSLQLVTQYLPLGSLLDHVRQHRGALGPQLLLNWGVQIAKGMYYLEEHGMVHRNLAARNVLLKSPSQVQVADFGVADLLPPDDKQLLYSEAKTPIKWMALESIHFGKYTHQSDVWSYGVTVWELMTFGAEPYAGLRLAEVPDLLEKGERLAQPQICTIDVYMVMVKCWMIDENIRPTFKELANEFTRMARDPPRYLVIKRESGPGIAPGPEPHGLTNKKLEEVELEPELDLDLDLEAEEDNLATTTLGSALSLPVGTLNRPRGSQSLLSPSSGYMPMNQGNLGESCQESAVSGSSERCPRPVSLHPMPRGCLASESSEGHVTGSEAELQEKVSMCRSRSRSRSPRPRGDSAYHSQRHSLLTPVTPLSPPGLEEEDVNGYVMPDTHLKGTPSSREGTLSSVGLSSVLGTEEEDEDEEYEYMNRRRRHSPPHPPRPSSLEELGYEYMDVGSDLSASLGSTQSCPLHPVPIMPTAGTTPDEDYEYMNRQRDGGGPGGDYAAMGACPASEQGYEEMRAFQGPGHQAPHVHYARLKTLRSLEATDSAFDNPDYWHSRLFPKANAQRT
T2 sequence (P21860 20-643 limits assumed, one chain of several): as the sequence (P21860 20-643 limits assumed) above

Kd [1] [nM]	IC50, inhibition of HER3 tyrosine phosphorylation in MCF-7 cells stimulated with heregulin [2] [ng/mL]	Kd (HER3:heregulin complex) [nM]	Kd [3] [nM]	Binder
165				B1
	~10	0.327	2.81	B2
